Reference: patent US20210284749A1 (ABL BIO, published 2021)

T1: recombinant human BCMA (ELISA antigen, construct not specified) (human, UniProt Q02223 1-54)
T1 construct: Fc 1-51; Fc/His 1-51; Fc 4-48) was coated in these ELISAs; also called recombinant BCMA; recombinant protein
T1 sequence: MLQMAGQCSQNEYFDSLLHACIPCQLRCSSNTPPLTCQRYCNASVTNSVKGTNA

T2: human BCMA-Fc/His (1-51) (human, UniProt Q02223 1-51)
T2 construct: also called recombinant human BCMA-Fc/His; recombinant human BCMA-His (Sino Biological Inc.); not shown: Fc region; C-terminal His tag
T2 sequence: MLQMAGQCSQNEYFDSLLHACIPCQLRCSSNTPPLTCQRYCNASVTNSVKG

T3: human BCMA expressed on cell surface (H929, OPM-2, CHOK1-hBCMA cells) (human, UniProt Q02223 1-184)
T3 construct: also called cell-surface BCMA; BCMA on cell surface
T3 sequence: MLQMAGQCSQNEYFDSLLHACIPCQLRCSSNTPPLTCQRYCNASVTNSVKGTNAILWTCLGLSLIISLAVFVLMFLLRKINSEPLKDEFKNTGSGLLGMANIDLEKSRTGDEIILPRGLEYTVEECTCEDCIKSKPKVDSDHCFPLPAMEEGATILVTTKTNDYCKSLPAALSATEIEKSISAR

T4: mouse BCMA (1-49) fused to the Fc region of human IgG1 (mouse; human, UniProt O88472 1-49)
T4 construct: Sino Biological Inc. 50076-M01H; also called 50076-M01H; not shown: Fc region of human IgG1
T4 chain: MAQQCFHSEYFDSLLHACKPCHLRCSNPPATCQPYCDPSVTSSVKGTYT

T5: rat BCMA (1-49) fused to the Fc region of human IgG1 (rat; human)
T5 construct: Sino Biological Inc. 80156-R01H; also called 80156-R01H; not shown: Fc region of human IgG1
T5 chain: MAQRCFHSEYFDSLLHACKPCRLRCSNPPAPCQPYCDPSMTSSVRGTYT

T6: human BCMA-Fc (R&D system, 193-BC-050) (human, UniProt Q02223 1-54, limits assumed)
T6 construct: Bought construct; not shown: Fc part
T6 sequence: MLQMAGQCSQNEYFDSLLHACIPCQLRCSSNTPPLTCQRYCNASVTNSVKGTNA


Tests used:
[1] = target: T7, monkey (Rhesus) BCMA (1-53) fused to the Fc region of human IgG1 (monkey (Rhesus); human, UniProt Q02223 1-54); assay: ELISA on coated monkey (Rhesus) BCMA, antibody titrated, HRP anti-Fab detection, absorbance 450 nm
T7 construct: Sino Biological Inc. 90103-C02H; also called monkey BCMA; Monkey BCMA (1-53); not shown: Fc region of human IgG1
Procedure: (§1) Using recombinant human BCMA or monkey BCMA as an antigen, and HRP-conjugated Fab polychronal antibody reagent (Pierce, 31414) as a secondary antibody, ELISA was performed as described in Example 1.3.

[2] = target: T1, recombinant human BCMA (ELISA antigen, …); assay: ELISA on coated recombinant human BCMA, antibody titrated, HRP anti-Fab detection, absorbance 450 nm
Procedure: as §1

human BCMA-Fc/His (1-51) = target: T2, human BCMA-Fc/His (1-51); assay: BLI (Octet), antigen on Ni-NTA biosensor, IgG in solution
Procedure: A 96-well black microplate was mounted on a Biosensor tray case, 200 μl of 1XKB was added to each of the 8 wells, and then 8 Ni-NTA biosensors (Fortebio) were inserted thereto for hydration for 10 minutes. For antigen fixation, 5 μg/ml of recombinant human BCMA-His (Sino Biological Inc.) was diluted using 1XKB. Experiments were performed with a threshold of 0.5 to 1.0 nm, and Octet Data Acquisition 9.0 software was activated to create an Octet program template. The first step was for Baseline 1, the second step was for loading, and the threshold was fixed to 0.5 to 1.0 nm. In the third step, which was for Baseline 2, association for 5 minutes and dissociation for 20 minutes were performed. A plate temperature was fixed to 30° C., and the prepared buffer solution was placed in order into a new 96-well black microplate according to the Octet program template. 200 μl of 1XKB used as Baseline 1 and recombinant human BCMA-Fc/His which is an antigen to be loaded were diluted to 5 μg/ml, and 200 μl of the dilution was added thereto. After adding 200 μl of 1XKB used as Baseline 2, 200 μl of the antibody to be reacted with the antigen was dispensed, and the instrument was operated. After completion of the experiment, an association constant (kon), a dissociation constant (kdis), and an equilibrium dissociation constant (KD) for each antibody were analyzed and calculated with Octet Analysis 9.0 software.

[3] = target: T1, recombinant human BCMA (ELISA antigen, …); assay: ELISA on 100 ng coated human BCMA, antibody titrated, anti-human Fab HRP, absorbance 450 nm
Procedure: (§2) 100 ng of human, monkey, mouse, and rat BCMA antigens prepared in Example 1.1 were coated on the bottom of the plate, and then coated with 3% BSA to block nonspecific binding. Using the selected anti-BCMA IgG antibodies as primary antibodies, and the anti-human Fab HRP (1:20000 dilution) as a secondary antibody, ELISA assay was performed as described in Example 1.3.
(§3) Absorbancies at 450 nm measured with a microplate reader are shown in FIG. 3, and half maximal effective concentrations (EC₅₀) (nM) are shown in Table 9.

[4] = target: T3, human BCMA expressed on cell surface …; assay: FACS on H929 cells, 10 µg/ml antibody, anti-human Fc-FITC; open histogram shifted right of the filled control
Procedure: (§4) Multiple myeloma cancer cells H929 (ATCC, CRL9068™) and OPM-2 cell line (DSMZ, ACC 50), which are known to express BCMA, were prepared, and human BCMA-overexpressed CHOK1-hBCMA cell line (constructed by ABIBio) were prepared.
(§5) 10 μg/ml of the seven IgG antibodies (B58, 5A6, 5D5, 5B5, 1H, 2G, and 5G) purified in Example 1.4 was added to the prepared cells, incubated at 4° C. for 1 hour, and then washed two times with a PBS buffer solution. The anti-human Fc-FITC was diluted in 1:400, incubated at 4° C. for 1 hour, and then washed with a PBS buffer solution. These processes were repeated. In FIGS. 2A and 2B, MFI indicates mean fluorescence intensity.

[5] = target: T4, mouse BCMA (1-49) fused to the Fc …; assay: ELISA on 100 ng coated mouse BCMA, antibody titrated, anti-human Fab HRP, absorbance 450 nm
Procedure: as §2, §3

[6] = target: T1, recombinant human BCMA (ELISA antigen, …); assay: ELISA, 100 ng coated antigen
Procedure: as §2, §3

[7] = target: T5, rat BCMA (1-49) fused to the Fc region …; assay: ELISA, 100 ng coated antigen
Procedure: as §2, §3

[8] = target: T7, monkey (Rhesus) BCMA (1-53) fused to …; assay: ELISA, 100 ng coated antigen
Procedure: as §2, §3

[9] = target: T4, mouse BCMA (1-49) fused to the Fc …; assay: ELISA, 100 ng coated antigen
Procedure: as §2, §3

[10] = target: T1, recombinant human BCMA (ELISA antigen, …); assay: ELISA on coated recombinant human BCMA, antibody titrated, HRP anti-Fab detection, absorbance 450 nm; remark: listed apart in the source
Procedure: Specific binding abilities of the anti-BCMA IgG antibodies isolated in Example 1.4 to recombinant BCMA protein were analyzed by ELISA.
as §1

[11] = target: T7, monkey (Rhesus) BCMA (1-53) fused to …; assay: BLI (Octet), monkey BCMA
[12] = target: T3, human BCMA expressed on cell surface …; assay: FACS on OPM-2 cells, 10 µg/ml antibody, anti-human Fc-FITC; open histogram shifted right of the filled control
Procedure: as §4, §5

[13] = target: T7, monkey (Rhesus) BCMA (1-53) fused to …; assay: ELISA on 100 ng coated rhesus BCMA, antibody titrated, anti-human Fab HRP, absorbance 450 nm
Procedure: as §2, §3

[14] = target: T5, rat BCMA (1-49) fused to the Fc region …; assay: ELISA on 100 ng coated rat BCMA, antibody titrated, anti-human Fab HRP, absorbance 450 nm
Procedure: as §2, §3

[15] = target: T6, human BCMA-Fc (R&D system, 193-BC-050); assay: competition ELISA on coated human BCMA-Fc; antibody titrated and mixed with 200 ng/ml BAFF, bound BAFF detected, absorbance 450 nm
Procedure: Specifically, human BCMA-Fc (R&D system, 193-BC-050) was diluted using a PBS buffer, and then 100 ng of the dilution per well was coated on the ELISA plate. After the coating, the plate was emptied, and 100 μl of PBST containing 1% BSA was added to each well and incubated at 37° C. for 2 hours. The antibodies diluted at a concentration of 50 μg/ml to 0.00028 μg/ml were mixed with 10 ng/ml of APRIL protein (R&D, 5860-AP-010/CF) or 200 ng/ml of BAFF (R&D, 2149-BF-010/CF). An IgG1 antibody was used as a negative control, and a J6MO antibody was used as a comparative group.
Using anti-HA-HRP (Roche, 12013819001) or anti-His-HRP (Roche, 11965085001) as secondary antibodies, ELISA assay was performed as described in Example 1.4(1). As a comparative group, anti-BCMA monoclonal antibody J6MO (GSK) was used.

Binder	binding result [1]	EC50 (read off the curve) [2] [µg/mL]	Kd (human BCMA-Fc/His (1-51)) [nM]	koff (human BCMA-Fc/His (1-51)) [s⁻¹]	kon (human BCMA-Fc/His (1-51)) [M⁻¹ s⁻¹]	EC50 (read off the curve) [3] [µg/mL]	MFI [4]	EC50 [6] [nM]	EC50 (read off the curve) [10] [µg/mL]	MFI [12]	also measured
anti-BCMA IgG antibody 2G (antibody, V domains shown) VH: EVQLVESGGGLVQPGGSLRLSCAASGFTFSNYAMSWVRQAPGKGLEWVSAISSSGSTIYYADSVKGRFTISRDNSKNTLYLQMNSLRAEDTAVYYCAKAGYYGSIYAFDYWGQGTLVTVSS VL: DIQMTQSPSSLSASVGDRVTITCRASQSISSYLNWYQQKPGKAPKLLIYATSRLQSGVPSRFSGSGSGTDFTLTISSLQPEDFATYYCQQSSSFPWTFGQGTKVEIKR	binds	~0.04	1.08	0.00078	720000						
anti-BCMA IgG antibody 5B5 (antibody, V domains shown, also called 5B5 antibody) VH: EVQLLESGGGLVQPGGSLRLSCAASGFTFSGHYWSWVRQAPGKGLEWVSTVSGSGGDTFYADSVKGRFTISRDNSKNTLYLQMNSLRAEDTAVYYCARGHSVMDVWGQGTLVTVSS VL: EIVLTQSPGTLSLSPGERATLSCRASQGIDSYVAWYQQKPGQAPRLLIYDASLRATGIPDRFSGSGSGTDFTLTISRLEPEDFAVYYCQQYNSWPITFGQGTKLEIKR			0.202	0.00025	1.24e+06	~0.01	37.4	63	~0.1	20.9	EC50 (read off the curve) [5]: ~0.01 µg/mL; EC50 [7]: 65 nM; EC50 [8]: 82 nM; EC50 [9]: 110 nM; Kd [11]: 0.461 nM; koff [11]: 0.00221 s⁻¹; kon [11]: 4.79e+06 M⁻¹ s⁻¹; EC50 (read off the curve) [13]: ~0.01 µg/mL; EC50 (read off the curve) [14]: ~0.02 µg/mL
anti-BCMA IgG antibody B58 (antibody, V domains shown, also called B58 antibody) VH: EVQLLESGGGLVQPGGSLRLSCAASGFTFSNYDMSWVRQAPGKGLEWVSWIYPSDSSIYYADSVKGRFTISRDNSKNTLYLQMNSLRAEDTAVYYCARGPFANKYRQFDYWGQGTLVTVSS VL: QSVLTQPPSASGTPGQRVTISCSGSSSNIGSNSVSWYQQLPGTAPKLLIYADSKRPSGVPDRFSGSKSGTSASLAISGLRSEDEADYYCGSWDYSLSGYVFGGGTKLTVL			0.0273	2e-05	735000	~0.01	80.7	79	~0.005	23.6	binding result [5]: no binding (tested: about 30 µg/ml); IC50 (read off the curve) [15]: ~5 nM; binding result [14]: no binding (tested: about 30 µg/ml)
anti-BCMA IgG antibody 1H (antibody, V domains shown) VH: EVQLVESGGGLVQPGGSLRLSCAASGFTFSNYAMSWVRQAPGKGLEWVSGISHSGSSTYYADSVKGRFTISRDNSKNTLYLQMNSLRAEDTAVYYCAKHVYIIEFESLDIWGQGTLVTVSS VL: not shown		~0.08	1.45	0.000592	409000						EC50 (read off the curve) [1]: ~0.2 µg/mL
anti-BCMA IgG antibody 5G (antibody, V domains shown) VH: EVQLVESGGGLVQPGGSLRLSCAASGFTFSNYAMSWVRQAPGKGLEWVSGISQSGSSTYYADSVKGRFTISRDNSKNTLYLQMNSLRAEDTAVYYCAKHAYIIEFESMDIWGQGTLVTVSS VL: not shown	binds		361	0.0143	39700						
